± gives the half width of the 95% confidence interval.
What was measured:
[1] = folding stability dG unfold from trypsin proteolysis; higher = more stable
Method in brief: (§1)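 Unfolding free energy was derived, per protease or combined, against a sequence-predicted unfolded-state K50 and a shared folded-state K50, starting from K50 inferred by Bayesian fitting of sequencing counts. Digestion with trypsin and chymotrypsin was carried out on designed mini-proteins under 80 residues without cysteine in a PA-tagged cDNA display construct. Only designs with AlphaFold2 dimer inter-PAE above 15 were kept.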

[2] = folding stability dG unfold from chymotrypsin proteolysis; higher = more stable
Method in brief: as §1

[3] = folding stability dG unfold (combined trypsin and chymotrypsin); higher = more stable
Method in brief: as §1

SAGGSAGGSNGKKIEIDIFWPRPMAETIVKELWKGSNIKPIKIKVIPMPEDDPKYKEFMDKLKSAGGSAGGS [r12_649_TrROS]
folding stability dG unfold [1]: 0.109 ± 0.079 kcal/mol
folding stability dG unfold [2]: 0.188 ± 0.12 kcal/mol
folding stability dG unfold [3]: 0.247 ± 0.12 kcal/mol

SAGGSAGGSNIKIPSLQIYPNPNGYYISIKIEHEHPDPDGKKHEVEMSFMIWVPPGESLEDLFSAGGSAGGS [r12_889_TrROS]
folding stability dG unfold [1]: 2.1 ± 0.078 kcal/mol
folding stability dG unfold [2]: 2.43 ± 0.049 kcal/mol
folding stability dG unfold [3]: 2.29 ± 0.12 kcal/mol

SAGGSAGGSNMPPGMEVEMEPIIEREIKNPNGRKLKIKIYVMKIRPPGGPPMFFIALDIQILDSAGGSAGGS [r12_544_TrROS]
folding stability dG unfold [1]: 3.48 ± 0.16 kcal/mol
folding stability dG unfold [2]: 5.03 ± 0.28 kcal/mol
folding stability dG unfold [3]: 4.52 ± 0.22 kcal/mol

SAGGSAGGSNRLVFRFGGYYYVVEIKPPNGKEETIMMPPDDIDDLPKNWKVEVEPIKPGQPIPSAGGSAGGS [r12_419_TrROS]
folding stability dG unfold [1]: 1.09 ± 0.12 kcal/mol
folding stability dG unfold [2]: 1.46 ± 0.23 kcal/mol
folding stability dG unfold [3]: 1.18 ± 0.2 kcal/mol

SAGGSAGGSNYINVKIEIWDPPNGKEREITINIPVPPGDPDYLKEIVNELASNFPGYYVKVEISAGGSAGGS [r12_795_TrROS]
folding stability dG unfold [1]: 1.61 ± 0.11 kcal/mol
folding stability dG unfold [2]: 1.61 ± 0.058 kcal/mol
folding stability dG unfold [3]: 1.64 ± 0.23 kcal/mol

SAGGSAGGSNYVVRIKIRYPDPDGKPIYEHTIDIPVPDEEITADELRKQLKPPGYEITDIEVLSAGGSAGGS [r12_611_TrROS]
folding stability dG unfold [1]: 0.509 ± 0.028 kcal/mol
folding stability dG unfold [2]: 0.314 ± 0.16 kcal/mol
folding stability dG unfold [3]: 0.57 ± 0.12 kcal/mol

SAGGSAGGSPDNWITFIFISISYKWKITKWDPENGGWKIEIKDVSIEIEIIRLPADDADKLFKSAGGSAGGS [r12_723_TrROS]
folding stability dG unfold [1]: 2.63 ± 0.079 kcal/mol
folding stability dG unfold [2]: 4.34 ± 0.062 kcal/mol
folding stability dG unfold [3]: 3.85 ± 0.13 kcal/mol

SAGGSAGGSPDVVVTVEKNEDGEETVTVLMSREDVERLAAALPDVKVEELPDGLVLLTVRVKPSAGGSAGGS [r20_231_TrROS_Hall]
folding stability dG unfold [1]: 0.51 ± 0.038 kcal/mol
folding stability dG unfold [2]: 0.827 ± 0.07 kcal/mol
folding stability dG unfold [3]: 0.728 ± 0.089 kcal/mol

SAGGSAGGSPEAPADRKLVALLRSPDSDTVYLVEITPDGIVAYNANNEKTPVSPEYLVAVFDASAGGSAGGS [r20_35_TrMRF]
folding stability dG unfold [1]: 0.883 ± 0.012 kcal/mol
folding stability dG unfold [2]: 1.09 ± 0.054 kcal/mol
folding stability dG unfold [3]: 1.02 ± 0.036 kcal/mol

SAGGSAGGSPEAVVVQTPDGRWLVFLRGPDGSVRPIVVPAGRPEALREVAEELGLTVENLDPVSAGGSAGGS [r12_891_TrMRF]
folding stability dG unfold [1]: 1.83 ± 0.052 kcal/mol
folding stability dG unfold [2]: 2.1 ± 0.04 kcal/mol
folding stability dG unfold [3]: 2 ± 0.065 kcal/mol

SAGGSAGGSPEEFEIKIVEPTPIEINPNGSVSLTFTVPNGWYLRIMIMRPPDGNPQPMIMIIPSAGGSAGGS [r20_240_TrROS]
folding stability dG unfold [1]: 2.86 ± 0.086 kcal/mol
folding stability dG unfold [2]: 3.54 ± 0.062 kcal/mol
folding stability dG unfold [3]: 3.22 ± 0.11 kcal/mol

SAGGSAGGSPIDITDIEVEQHEHPDGQQYHEVKIRLPDGRPIKIWMSPGSTPDQVLKQAKEFISAGGSAGGS [r12_1047_TrROS]
folding stability dG unfold [1]: -0.137 ± 0.12 kcal/mol
folding stability dG unfold [2]: -0.0705 ± 0.26 kcal/mol
folding stability dG unfold [3]: 0.0598 ± 0.17 kcal/mol

SAGGSAGGSPKIEIEQDPNGWWRVKIRPPDGKKRPINIPPGDPEKILDEAEENGWKIDEIEPWSAGGSAGGS [r12_891_TrROS]
folding stability dG unfold [1]: -0.045 ± 0.2 kcal/mol
folding stability dG unfold [2]: 0.631 ± 0.14 kcal/mol
folding stability dG unfold [3]: 0.404 ± 0.12 kcal/mol

SAGGSAGGSPKIELLDSRPRPDGSLVELLAIEAEDEIRLLVIVTHPDGVDIRFFEPEYPDLDLSAGGSAGGS [r12_315_TrMRF]
folding stability dG unfold [1]: 0.386 ± 0.15 kcal/mol
folding stability dG unfold [2]: 0.008 ± 0.18 kcal/mol
folding stability dG unfold [3]: 0.279 ± 0.3 kcal/mol

SAGGSAGGSPKIKEVKYIPPTGKIEVLIELPNGKPIKVTFDPKIKVNPVFYNGKPIFYFTGNPSAGGSAGGS [r12_789_TrMRF]
folding stability dG unfold [1]: 0.925 ± 0.015 kcal/mol
folding stability dG unfold [2]: 1.21 ± 0.073 kcal/mol
folding stability dG unfold [3]: 1.19 ± 0.076 kcal/mol

SAGGSAGGSPKITVDPNTGKVLIEIPGPSGTALIIAEVKDGKITRVDIIGPPELREAIKKLLGSAGGSAGGS [r20_112_TrMRF]
folding stability dG unfold [1]: 2.19 ± 0.082 kcal/mol
folding stability dG unfold [2]: 2.04 ± 0.092 kcal/mol
folding stability dG unfold [3]: 2.08 ± 0.073 kcal/mol

SAGGSAGGSPKPKVKKFNMEPVEIEPNPDNGHLSIRFPNGYYIQFHYDDDGEYELQIMPPDDLSAGGSAGGS [r12_351_TrROS]
folding stability dG unfold [1]: -0.0555 ± 0.14 kcal/mol
folding stability dG unfold [2]: 0.764 ± 0.14 kcal/mol
folding stability dG unfold [3]: 0.455 ± 0.17 kcal/mol

SAGGSAGGSPLAPGQTVTVRVERVDGPVVITVRNEATGETLTLTFDRPAEDLKPGDTVTVTVTSAGGSAGGS [r12_525_TrROS_Hall]
folding stability dG unfold [1]: 2.05 ± 0.039 kcal/mol
folding stability dG unfold [2]: 2.897 ± 0.021 kcal/mol
folding stability dG unfold [3]: 2.54 ± 0.045 kcal/mol

SAGGSAGGSPLPPEVYKIRLKVDGKWYEALARVKPDGTVEVFLKDTGKTFTVPLKDLEIEKLDSAGGSAGGS [r12_782_TrROS_Hall]
folding stability dG unfold [1]: 3.25 ± 0.19 kcal/mol
folding stability dG unfold [2]: 3.51 ± 0.064 kcal/mol
folding stability dG unfold [3]: 3.35 ± 0.14 kcal/mol

SAGGSAGGSPMVVFEFKIKDPKIRKAIDEAKKDGDKSAEIPFPNGWPIRITEIEDNYIRITIWSAGGSAGGS [r12_334_TrROS]
folding stability dG unfold [1]: 1.17 ± 0.058 kcal/mol
folding stability dG unfold [2]: 2.18 ± 0.14 kcal/mol
folding stability dG unfold [3]: 1.69 ± 0.2 kcal/mol

SAGGSAGGSPNRKEIYIPISEEQFKENGMTPEEIADRIAEKFPHIPPNVRIEYPPNGWIKITVSAGGSAGGS [r12_50_TrROS]
folding stability dG unfold [1]: 0.198 ± 0.11 kcal/mol
folding stability dG unfold [2]: -0.208 ± 0.33 kcal/mol
folding stability dG unfold [3]: 0.229 ± 0.21 kcal/mol

SAGGSAGGSPNYRTVTVTLPNGEVYVIDVSQLIESDPNYVPGDPISDEELVALAKKRAEELELSSAGGSAGG [r6_65_JUSTAS]
folding stability dG unfold [1]: 2.71 ± 0.051 kcal/mol
folding stability dG unfold [2]: 3.249 ± 0.031 kcal/mol
folding stability dG unfold [3]: 3.04 ± 0.041 kcal/mol

SAGGSAGGSPPPDVPVDVGERVEYHPPGGVVVREYRTPEGRLIRVEIEELEGGELVRRVVLPLSAGGSAGGS [r12_264_JUSTAS]
folding stability dG unfold [1]: 1.14 ± 0.095 kcal/mol
folding stability dG unfold [2]: 1.33 ± 0.07 kcal/mol
folding stability dG unfold [3]: 1.25 ± 0.17 kcal/mol

SAGGSAGGSPPPIEIRFPNGWEIDKIDPDDAHIILRMPNWIISIEIDPKDGEIDIDIVPNADVSAGGSAGGS [r12_243_TrROS]
folding stability dG unfold [1]: 1.15 ± 0.1 kcal/mol
folding stability dG unfold [2]: 2.09 ± 0.32 kcal/mol
folding stability dG unfold [3]: 1.71 ± 0.27 kcal/mol

SAGGSAGGSPPVKYRITIEMKDPNGKEHTHTIEIPGMNPDDAKEFLEDIPIPPGIKDVEIEPYSAGGSAGGS [r12_886_TrROS]
folding stability dG unfold [1]: -0.0813 ± 0.068 kcal/mol
folding stability dG unfold [2]: -0.55 ± 0.68 kcal/mol
folding stability dG unfold [3]: -0.148 ± 0.24 kcal/mol

SAGGSAGGSPSVPPEWKVEIVEVTVHPDGSTVTAVIRFEDGSTVTVNSPEALARLVEGGNVVNSAGGSAGGS [r12_455_TrMRF]
folding stability dG unfold [1]: 1.12 ± 0.047 kcal/mol
folding stability dG unfold [2]: 1.62 ± 0.11 kcal/mol
folding stability dG unfold [3]: 1.51 ± 0.14 kcal/mol

SAGGSAGGSPSVVTLVSPDYYAEAFYFPDFVLVVLYDPEKGPPQVFLVSNENGELKFFPASEASAGGSAGGS [r12_632_TrMRF]
folding stability dG unfold [1]: 2.28 ± 0.18 kcal/mol
folding stability dG unfold [2]: 3.24 ± 0.059 kcal/mol
folding stability dG unfold [3]: 2.85 ± 0.18 kcal/mol

SAGGSAGGSPWRRIPISSPEQILDWLEEMLPPGFNLTPEMAEQMVDYFLKNFEVDPNGYLWVRSAGGSAGGS [r12_983_TrROS]
folding stability dG unfold [1]: 2.11 ± 0.051 kcal/mol
folding stability dG unfold [2]: 1.82 ± 0.21 kcal/mol
folding stability dG unfold [3]: 1.89 ± 0.14 kcal/mol

SAGGSAGGSRIVIHWDPDGMFMIEIRDPGESRTFMFDGPEEAENFADKIEDKLGLPVEVTEIYSAGGSAGGS [r12_783_TrROS]
folding stability dG unfold [1]: 0.69 ± 0.024 kcal/mol
folding stability dG unfold [2]: 0.681 ± 0.11 kcal/mol
folding stability dG unfold [3]: 0.747 ± 0.099 kcal/mol

SAGGSAGGSRIVRNPDGWYYVRIESPEKGQERYIWIPKGNAEEIADPFGIRNVSIYRPDEPIPSAGGSAGGS [r12_294_TrROS]
folding stability dG unfold [1]: 0.427 ± 0.15 kcal/mol
folding stability dG unfold [2]: 1.28 ± 0.34 kcal/mol
folding stability dG unfold [3]: 0.937 ± 0.19 kcal/mol

SAGGSAGGSRKIPIWIPPGMPPEQLEHFVRFIAGENGWKIKSVEIKDVDPANNWVKIDIEVKWSAGGSAGGS [r12_168_TrROS]
folding stability dG unfold [1]: 2.16 ± 0.094 kcal/mol
folding stability dG unfold [2]: 2.9 ± 0.093 kcal/mol
folding stability dG unfold [3]: 2.67 ± 0.11 kcal/mol

SAGGSAGGSSAEEVAASYPVTEVEYDPVTNTTTVTAEFPDSRIVLTYDPATGTVTTEVLPPLRSAGGSAGGS [r12_214_JUSTAS]
folding stability dG unfold [1]: 0.508 ± 0.018 kcal/mol
folding stability dG unfold [2]: 0.749 ± 0.035 kcal/mol
folding stability dG unfold [3]: 0.654 ± 0.17 kcal/mol

SAGGSAGGSSDEPLVIPVTAVFVNPETGEVTVARAEVRLPPDGGLEVDVEVEVREVEPDAPLLSAGGSAGGS [r12_116_TrMRF]
folding stability dG unfold [1]: 0.964 ± 0.025 kcal/mol
folding stability dG unfold [2]: 1.47 ± 0.036 kcal/mol
folding stability dG unfold [3]: 1.2 ± 0.14 kcal/mol

SAGGSAGGSSEKAEELLERLRELLPPEEIRRVEVRDGKIVIEVSPEAARRLAEELGLDEIEIVSAGGSAGGS [r12_748_TrROS_Hall]
folding stability dG unfold [1]: 2.53 ± 0.09 kcal/mol
folding stability dG unfold [2]: 2.22 ± 0.071 kcal/mol
folding stability dG unfold [3]: 2.49 ± 0.074 kcal/mol

SAGGSAGGSSELKVVELTTEPGKYLVVTLPDGTVVVLPPGAPLPLGDGEPATVEVVPEEELRSSAGGSAGGS [r12_39_JUSTAS]
folding stability dG unfold [1]: 0.413 ± 0.041 kcal/mol
folding stability dG unfold [2]: 0.85 ± 0.022 kcal/mol
folding stability dG unfold [3]: 0.705 ± 0.046 kcal/mol

SAGGSAGGSSFEITVYHPDKGKPFKAKVDIEPELVDGDGKPVLVYKAKITIGDKPFEAVFVLNSAGGSAGGS [r20_39_TrMRF]
folding stability dG unfold [1]: 2.14 ± 0.08 kcal/mol
folding stability dG unfold [2]: 2.89 ± 0.043 kcal/mol
folding stability dG unfold [3]: 2.63 ± 0.14 kcal/mol

From the supplement of paper PMC12764529
